Measured values: patent US20250326807A1 (published 2025)

Target: T1, Recombinantly expressed fused calprotectin (His6-linker-S100A9-linker-S100A8), product code B-RCAL, BÜHLMANN … (human, UniProt P06702 1-114; P05109 1-93)
T1 construct: Bought fusion protein; also called CP; human recombinant calprotectin
T1 sequence: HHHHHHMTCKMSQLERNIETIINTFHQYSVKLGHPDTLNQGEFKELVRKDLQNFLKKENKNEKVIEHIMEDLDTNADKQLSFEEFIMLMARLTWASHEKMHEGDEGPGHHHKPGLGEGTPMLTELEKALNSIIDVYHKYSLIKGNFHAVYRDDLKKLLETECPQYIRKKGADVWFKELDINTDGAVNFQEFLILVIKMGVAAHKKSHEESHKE
Assay: fluorescence polarization, 20 nM fluorescent peptide, calprotectin titrated
Experimental: The reaction mixture was incubated at 30° C. for 1 hr, and the completion of the reaction was assessed by LCMS. The reaction was stopped by addition of HCOOH (200 μL) and the cyclized peptide was lyophilized. The final purification was performed as before with a reversed-phase C18 column (X-bridge peptide BEH C18 5 μm, 300 Å, 10×250 mm, Waters) applying a flow rate of 6 mL/min and an appropriate linear gradient in 40 min. Fractions containing the desired peptide were lyophilized. The purity of the peptides was assessed by analysing around 20 μg of peptide by RP-HPLC (1260 HPLC system, Agilent) using a C18 column (ZORBAX 300SB-C18, 5 μm, 300 Å, 4.6×250 mm, Agilent). Peptides were run at a flow rate of 1 mL min⁻¹ with a linear gradient of 0-100% of solvent B over 15 min (A: 94.9% H₂O, 5% ACN and 0.1% TFA; B: 99.9% ACN and 0.1% TFA). The mass was determined by electrospray ionization mass spectrometry (ESI-MS) in positive ion mode on a single quadrupole liquid chromatography mass spectrometer (LCMS-2020, Shimadzu). […] Fluorescence anisotropy was measured on a microwell plate reader (Infinite M200Pro, Tecan), with a filter for excitation at 485 nm and emission at 535 nm. Dissociation constant (Kd) was calculated using the following equation on Prism 5 (GraphPad): […]

B1: Peptide 3 Isomer 1 (RCPECVAFPMFQCHWYCG with cross-linked neighboring cysteines) (peptide)
peptide: RCPECVAFPMFQCHWYCG
modifications: neighboring cysteines cross-linked by chemical linkers (linker not named); N-terminal 5(6)-carboxyfluorescein; synthesised on rink amide AM resin
notes: Both pairs of neighboring cysteines bridged
Q: How did the Kd turn out when B1 was run?
A: The Kd was roughly 24 nM.
